Experimental data from a protein production outcome set (Wang et al. 2014).

Test: label from the status in PepcDB records
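Note: failed if final PepcDB status was selected cloned or expressed and not failed if soluble or beyond.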

Sequence | protein production
MRRFLAGLWLLGLALGQGLVLPFEGPKGYGLAQAFAQGLKAPPPTLLALLLPDLPWRGSYELAGGLYTKAGARLARAATGADWVLLGREEEGGLRLILAREGGSEERLFKTPELAWLWLQGKGLAPRLSPLPTPGLPEERLRALAQGEAPDPLHRSALDLKEGRGSGLLEGLLPERLLLLWQGKLPRAYEAFRLLAEGKREEALALAEAMEEGDVLERTAAHLLFRALEDERWKASARRLAEAFPELSLAWEEVSFAAFQEGKGEEAKEALLKALALRPDYWLYWTNLGWAYYLTGDLPRAIQASERAVALSPNATAYYNLGLFKAIYGDFLGAKAAYDRALRLDQGEDYPEALKDLEEREEPLALFFRAYLAERTGLEAEPLYRAFLEAYPRHPAAFAARRALATLKAGGLSLEVERLTLVPGGPDARPFRAGEAIFPEVRLEGRPYLRQASLFTALYREGRKVAEEEKPVGFPPLTVALLEVAPPVVPEAPGRYRLEVRYAEARAVLDLEVGAPSLARRLFALGLEVRDLSGRPLLTPKEALGEDGERLLLERAREALMEAAPLATTERLTQPLEKGPVAGRSVQEVLRDPDPEILRAFFQAVLENPERLAETDVVNAFVNWLLEP | failed
MRRLKRDPLERAFLRGYQNGITGKSRDLCPFTHPTTRQSWLNGWREGRGDNWDGLTGTAGLQRLNQLQHVLEHHHHHH | failed
MRRLLFLSLAGLWLFSPAAAAQLPGLISQPLAGGGQSWSLSVQTLVFITSLTFLPAILLMMTSFTRIIIVFGLLRNALGTPSAPPNQVLLGLALFLTFFIMSPVIDKIYVDAYQPFSEQKISMQEALDKGAQPLRAFMLRQTREADLALFARLANSGPLQGPEAVPMRILLPAYVTSELKTAFQIGFTIFIPFLIIDLVIASVLMALGMMMVPPATIALPFKLMLFVLVDGWQLLMGSLAQSFYS | failed
MRRNRPGARHCPAFSGYPDPGFPRGSRRSGSSRRGKSRIMDWLKSLPGIGPLIARLMTTHAWRSYERLDRVKWTQLAAAMTFISFVALFPLLTVAAAIGAAALSEEQQKTLQDKLAEQVPGISDQLDIHALVQNAGTVGVIAGAVLLFTGIGWVGAMRDCLRAVWELDDDEENPFLRKLKDGGVLLGLGGAVLVTLATSTVASAMVGWTADRLGIERDGWGSVLLHITAFLVAVLADFLLLLYVLTLLPGVEPTRRRLVVAALIGAVGFELLKLLLSGYIQGVASKSMYGAFGVPVALLLWINFTSKLLLFCAAWTATPSDGPAEEEVSGASDDVPDRAAASGG | failed
MRRPVSKWALLALLFTALLAADQWTKYLAVERLTVVFERGGDETLAERVRGFYTYRHLEPLSTEPYYVWRPVWRMNYVENPGAAWGLFRGHSQFFRNAFFTLVSVAAVAFILHYYRKLRQDQRYLQVALGLVLAGAVGNFVDRLARRYVIDFIEWYWWNRPDIRWPTFNVADSLIVVGVAMLVLHPGSRREAARAPARRDAAAERV | failed
MRRQELARQCGERSKKDNKKGSAKAKKMEQMRNESRASTPSKDSNTSQSTASSTPTTSAGPGSKSEAGSTGTTTTNSTANSTTSRAHRKSTQSTPSTARPGTPSDKKEDPAAAETTEEEGPVAPKKKRMSEQRPSLTGSDVAEKPLPPTT | failed
MRRQTMVKAGAVACAVALLGSLSACGGSKKSTTTADGKPIVTVLVKKNANQEKMANMQWAKDLEADCDCKIEWQEVTREAWAQQKNATLASGDIADVNLNGYGAVEAYQYPGMFEDLSKDLDKLPNVKAFFKQKPDAKKMSTDSKGRIYAIADGRGKAYSGTGQHMLINKAWLDKLGLQVPTTWDELENVLKAFKTQDPNGNGQADEIPMNIKKLEGSYFTWYSPMLLLNSTGIVTGFNKGVSEYGFYAKNGVVKSFLTSDEYKEVIKYYHKLISEGLIPAEWATKDDDAYNADQISDGKTAKTGVVFGWSPSDNFGKLKDQYIAMPVPSAPGVSPDQTVWDGSSSELSPAGLSISSHAANKDAALKLANLLYSEKYSVQQFLGSFGKAITKTGEHEYTVDNDKLSQLTGDNQYPGLSELLVGWIPDEATIKGDTHADELIEVNKVYEEQRSHFDPVKDYIPDYVNMDNMDPSDATKLNTNNAEIFNTTMQKTATWMSKGGIDEEWDAYCKQLDSIGLQESTKIWQKWYDTYTK | not failed
MRRRDPSRKMILRMSHVVRRLRPDGIVELRPRDVRVERPEWYLGAYTTFLVSGALFISTAVPAQLVAITFLGCLLGEVCFGLRALVALRRPLAEVEVLAPMRRVR | failed
MRRRWYNNGGFQTLRMLEESSSEVTSSSALGLPPAMVMSPESLASPEYGGLELWGYDDGITYSMAQSLGTCTMEQQQPQPQQQPQQTQPLPSMPLPMPPTTPKSENESMSSGREELSPASSVNGCSTDGEARRQKKGPAPRQQEELCLVCGDRASGYHYNALTCEGCKGFFRRSVTKNAVYICKFGHACEMDMYMRRKCQECRLKKCLAVGMRPECVVPENQCAMKRKEKKAQREKDKLPVSTTTVDDHMPPIMQCDPPPPEAARIHEVVPRFLNEKLMEQNRLKNVPPLTANQKSLIARLVWYQEGYEQPSEEDLKRVTQTWQSDEDDEDSDMPFRQITEMTILTVQLIVEFAKGLPGFAKISQSDQITLLKACSSEVMMLRVARRYDAATDSVLFANNQAYTRDNYRKAGMAYVIEDLLHFCRCMYSMMMDNVHYALLTAIVIFSDRPGLEQPLLVEEIQRYYLNTLRVYILNQNSASPRCAVIFGKILGILTEIRTLGMQNSNMCISLKLKNRKLPPFLEEIWDVADVATTATPVAAEAPAPLAPAPPARPPATV | not failed
MRRSKYFTPNEVSLHNTINDIWVSYLGKVYDLTPLLEAYKGDVLLKPIIECAGKDISHWFDPKTKDILTHVDPLTGCIKYYTPRGRFIHIPPPCPRTDWANNFGKPWWKDNRYEVGLLSAKTRWIRIINTLTSQEQKLEVCSEESLDEILHRYLFYNSHAASYTWKLSGINLDMSKTLSENGIPEEDEFYCGSPDCNLFSPSICLYFNDDLTEL | failed
MRRTPRKATAAGALMAATAFLTVGIQAVPATAKPAAPHPSPLRTGGQEAKLTPAQHSALLKSAAKKTTTTAATLGLGAKEKLVVRDVVKDNDGTLHTRYERTWAGLPVLGGDVVVHTPPASLAAGTVSSTFNNKRTIKVASTTASFTRSAAVTKALKAAKDLAAEKATTDSARKVIWAGSGAPKLAWETVIGGLQDDGTPSQLHVITDATTGKELYRYQGVKTGTGNTQYSGTVSLSTTLSGSTYQLYDTTRGGHKTYSLNNGTSGTGTLMTDADDTWGTGSGSNTQTAGADAAYGAQTTWDFYKNTFGRSGIKNDGVAAYSRVHYSTAYVNAFWDDDCFCMTYGDGTSSTHALTSLDVAGHEMSHGVTSNTAGLNYTGESGGLNEATSDIFGTGVEFYAANSSDVGDYLIGEKIDINGDGTPLRYMDEPDKDGGSADSWYSGVGNLDVHYSSGPANHMFYLLSEGSGSKTINGVTYNSPTSDGVAVAGIGRAAALQIWYKALTTYMTSSTNYAGARTAALNAATALYGASSTQYAGVANAFAGINVGSHVTPPTSGVTVTNPGSQSSTVGTAVSLQVSASSTNSGSLTYAATGLPTGLSVNSSTGVISGTPTTAGTYSTTVTVTDSTGATGTASFTWTVSSSGGGGTCASTQLLGNPGFESGNTTWTASSGVITNSSSEAAHAGSYKAWLDGYGSTHTDTLSQSVTIPSGCKASLTFYLHIDTAETTTSTQYDKLTVTAGSTTLATYSNLNAASGYTQKTFDLSSLAGTTVALKFSGVEDSSLQTSFVIDDTALTTS | failed
MRSDVVARAMRLIADGTVDRDGVSGLAAQLGYTIRQLERLLQAVVGAGPLALARAQRMQTARVLIETTNLPFGDVAFAAGFSSIRQFNDTVRLACDGTPTALRARAAARFESATASAGTVSLRLPVRAPFAFEGVFGHLAATAVPGCEEVRDGAYRRTLRLPWGNGIVSLTPAPDHVRCLLVLDDFRDLMTATARCRRLLDLDADPEAIVEALGADPDLRAVVGKAPGQRIPRTVDEAEFAVRAVLAQQVSTKAASTHAGRLVAAYGRPVHDRHGALTHTFPSIEQLAEIDPGHLAVPKARQRTINALVASLADKSLVLDAGCDWQRARGQLLALPGVGPWTAEVIAMRGLGDPDAFPASDLGLRLAAKKLGLPAQRRALTVHSARWRPWRSYATQHLWTTLEHPVNQWPPQEKIALEHHHHHH | failed
MRSKFVLFMLMSLLTGSLMANSEAQIYGYVEKATLIDQNLTLSAKLDTGAKSASLHAVNITEIEKKGIPYLRFTVPTKTGDYSFEGEYVGKVKIKVRSSETNPGLLRTTPIKRPVVLLNIKLGDKVRTIKVNLTNRKRFLYPLLLGRDAIIDFNGAVDPALTFTTKSKSPVNNEK | failed
MRSLTHIAKIEPPPVRRVTYVKHYSIQPANLEFNAEGTPVSRDFDDVYFSNDNGLEETRYVFLGGNQLEVRFPEHPHPLFVVAESGFGTGLNFLTLWQAFDQFREAHPQAQLQRLHFISFEKFPLTRADLALAHQHWPELAPWAEQLQAQWPMPLPGCHRLLLDEGRVTLDLWFGDINELTSQLDDSLNQKVDAWFLDGFAPAKNPDMWTQNLFNAMARLARPGGTLATFTSAGFVRRGLQDAGFTMQKRKGFGRKREMLCGVMEQTLPLPCSAPWFNRTGSSKREAAIIGGGIASALLSLALLRRGWQVTLYCADEAPALGASGNRQGALYPLLSKHDEALNRFFSNAFTFARRFYDQLPVKFDHDWCGVTQLGWDEKSQHKIAQMLSMDLPAELAVAVEANAVEQITGVATNCSGITYPQGGWLCPAELTRNVLELAQQQGLQIYYQYQLQNLSRKDDCWLLNFAGDQQATHSVVVLANGHQISRFSQTSTLPVYSVAGQVSHIPTTPELAELKQVLCYDGYLTPQNPANQHHCIGASYHRGSEDTAYSEDDQQQNRQRLIDCFPQAQWAKEVDVSDKEARCGVRCATRDHLPMVGNVPDYEATLVEYASLAEQKDEAVSAPVFDDLFMFAALGSRGLCSAPLCAEILAAQMSDEPIPMDASTLAALNPNRLWVRKLLKGKAVKAG | failed
MRSQPTVSVIVPARNEAGNIAAAVERLPELGAETELIFVEGHSRDQTWETIEQTVAEYQGPLKLLACRQTGKGKADAVRLGFDKASGDILMILDADLTVQPEDLGHFYRAIASGRGEFINGSRLVYPRSRLAMPGLNTLANRTFALIFSFLLGQPLKDTLCGTKVLWKTDYDRVAAGRKYFGDFDPFGDFDLLFGAAKLGLEIVEVPVRYQERSYGSSNIAHVREGLILARMCLYAAGKLKFPLEHHHHHH | failed
MRSTTSTLMLIKKTAIAVSLAVGSMVISGCDTNEVAKEISQPTIRPALTEIVSPSANAQLRFNGVVRSAQRADLAFRMSSRVISVLVDEGQQVKKGQLLAQLDPRDAQTALESARVEYKNSKAEYTRGKAIYEKSQAIAKSDLDTLTTRYQLAKNRLDEAQRQLEYTQLHAPFDGVIGKKMIDNHVQIQANSPVLTVHNVDDLEVLINIPDSVMLGDLKGSKALAQISALRNETFPLVLSTYGTQADPITQTYPVVLTFEDLRGFNVLPGMTVKVVPVYSDEQDQASLLITVPLTAVVPDNQGGQFVWVVTQENKVQKRIISAGTLVSNRIVINDGLQTGERIITAGASSLKEGMEVRPYTDTLSSQVEK | failed
MRTFTWRKGSLSKVNTCYVLAGGKSKRFGEDKLLYEIKGKKVIERVYETAKSVFKEVYIVAKDREKFSFLNAPVVLDEFEESASIIGLYTALKHAKEENVFVLSGDLPLMKKETVLYVLENFKEPVSVAKTEKLHTLVGVYSKKLLEKIEERIKKGDYRIWALLKDVGYNEVEIPEELRYTLLNMNTKEDLKRILAIENHY | not failed
MRTGRSPPTPSTRCAVALVCSWSLIRVVRLSMARRSRCRLGMPSGVPGRCRRFSMTLTSLSGSTWNTRLLTAPISVRSCCTQPSWVVSRGLLVCLPSITPVLSRYGSLRSRCAWCRWLRPLTTTSPGSQRCWVPAGFGSRRTCPRTGLARRSATPLRTRCLSSSSRAVRMPRLVPYPSGCVMALRSMASSWTRQCVSLQLGTVGTATTIRLPRRCAESLMTEDYRLEFAEELVGVPDPFRRFWTPYRMAYISGENKPRGNRPEDGCPFCRAPQRSDEDALIVHRGEHCYVIMNLYPYGPGHMLVCPYRHVAGYVDATQDEVVEMAELTQDAIRTLQEVSRPQGFNVGINQGASGGAGVAAHLHQHVIPRWTGDTNFLPIVAGVRAVPQLLGDGRQMLADAWVGHA | failed
